Measurements as given in patent US20150017230A1 (ACADEMIA SINICA, published 2015).

Key:
[1] = molecular target: T1, human epithelial cell adhesion molecule (EpCAM), endogenous in SAS and other cancer cells (human, UniProt P16422 24-314); assay: cellular ELISA on SAS cells, OD490nm
T1 construct: also called TACSTD1; epithelial specific antigen (ESA)
T1 sequence: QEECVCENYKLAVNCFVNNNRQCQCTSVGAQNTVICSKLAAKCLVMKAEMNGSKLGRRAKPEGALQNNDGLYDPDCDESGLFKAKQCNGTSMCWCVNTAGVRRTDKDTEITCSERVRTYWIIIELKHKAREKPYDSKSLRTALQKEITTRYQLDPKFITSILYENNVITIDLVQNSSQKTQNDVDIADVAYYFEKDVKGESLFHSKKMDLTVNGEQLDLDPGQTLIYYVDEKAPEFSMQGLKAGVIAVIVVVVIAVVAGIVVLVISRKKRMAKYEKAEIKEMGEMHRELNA

[2] = molecular target: T2, EpCAM antigen immobilized on CM5 sensor chip (human, UniProt P16422 24-265, limits assumed); assay: SPR (BIAcore), EpCAM antigen immobilized on CM5 chip, mAb injected
T2 sequence: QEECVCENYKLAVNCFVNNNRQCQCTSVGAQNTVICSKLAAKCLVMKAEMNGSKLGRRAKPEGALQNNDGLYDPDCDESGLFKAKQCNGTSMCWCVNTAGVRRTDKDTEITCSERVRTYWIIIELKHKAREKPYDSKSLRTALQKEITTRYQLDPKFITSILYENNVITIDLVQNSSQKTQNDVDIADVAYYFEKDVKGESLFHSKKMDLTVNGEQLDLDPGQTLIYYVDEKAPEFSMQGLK
Method: (§1) The affinity of murine and humanized antibodies was performed by surface plasmon resonance (BIAcore T100, Biacore, Inc). EpCAM antigen was immobilized on a Series S Sensor Chip CM5 (Biacore, Inc) and injected at a flow rate of 10 μl/min. The mAbs were diluted in HBS-EP⁺ buffer (Biacore, Inc) and injected at a flow rate of 50 μl/min for 1.5 min, and were allowed to dissociate over 5 min. […] The data were analyzed by the BIAevaluation software with a global fit 1:1 binding model.

[3] = molecular target: T2, EpCAM antigen immobilized on CM5 sensor …; assay: SPR (BIAcore T100), EpCAM antigen immobilized on CM5 chip, mAb injected, 1:1 global fit
Method: as §1

B1: EpAb2-6 (antibody, V domains shown)
VH: EVQLVESGPELKKPGETVKISCKASGYTFTDYSMHWVKQAPGKGLKWMGWINTETGEPTFADDFKGRFAFSLETSARTTYLQINNLKNEDTATYFCARTAVYWGQGTSLTVSS
VL: DIQLTQSPSSLSASLGERVSLTCRASQEISVSLSWLQQKPDGTIKRLIYATSTLDSGVPKRFSGSRSGSDYSLTISSLESEDFADYYCLQYASYPWTFGGGTKLEIKR
notes: Mouse hybridoma monoclonal IgG; also called mEpAb2-6; murine EpAb2-6
EC50 (read off the curve) [1]: ~0.01 µg/mL
koff [2]: 0.00014 s⁻¹
kon [2]: 401000 M⁻¹ s⁻¹
Kd [3]: 0.349 nM

B2: humanized EpAb2-6 (antibody, V domains shown)
VH: VKLQESGPELKKPGETVKISCKASGYTFTDYSMHWVKQAPGKGLKWMGWINTETGEPTYADDFKGRFAFSLETSASTAYLQINNLKNEDTATYFCARTAVYWGQGTTVTVSS
VL: DIQMTQSPSSLSASLGERVSLTCRASQEISVSLSWLQQEPDGTIKRLIYATSTLDSGVPKRFSGSRSGSDYSLTISSLESEDFVDYYCLQYASYPWTFGGGTKLEIKR
notes: CDRs of EpAb2-6 grafted onto a human IgG1 backbone; also called hEpAb2-6
EC50 (read off the curve) [1]: ~0.02 µg/mL
koff [2]: 0.000254 s⁻¹
kon [2]: 376000 M⁻¹ s⁻¹
Kd [3]: 0.677 nM

B3: EpAb4-1 (antibody, V domains shown)
VH: QIQLVQSGPELKKPGETVKISCKASGYTFTNYGMNWVKQAPGKGLKWMGWINTYTGEPTYGDDFKGRFAFSLETSASTAYLQINNLKNEDTATYFCARFGRSVDFWGQGTSVTVSS
VL: DIVMTQAAFSNPVTLGTSASISCRSSKSLLHSNGITYLYWYLQKPGQSPQLLIYHMSNLASGVPDRFSSSGSGTDFTLRISRVEAEDVGIYYCAQNLENPRTFGGGTKLEIK
Kd [2]: 0.00123 nM
koff [2]: 3.52e-07 s⁻¹
kon [2]: 286000 M⁻¹ s⁻¹
